T1: EsCas13d, nuclease-dead (Eubacterium siraeum, UniProt B0MS50, R295A;H300A;R849A;H854A)
T1 sequence: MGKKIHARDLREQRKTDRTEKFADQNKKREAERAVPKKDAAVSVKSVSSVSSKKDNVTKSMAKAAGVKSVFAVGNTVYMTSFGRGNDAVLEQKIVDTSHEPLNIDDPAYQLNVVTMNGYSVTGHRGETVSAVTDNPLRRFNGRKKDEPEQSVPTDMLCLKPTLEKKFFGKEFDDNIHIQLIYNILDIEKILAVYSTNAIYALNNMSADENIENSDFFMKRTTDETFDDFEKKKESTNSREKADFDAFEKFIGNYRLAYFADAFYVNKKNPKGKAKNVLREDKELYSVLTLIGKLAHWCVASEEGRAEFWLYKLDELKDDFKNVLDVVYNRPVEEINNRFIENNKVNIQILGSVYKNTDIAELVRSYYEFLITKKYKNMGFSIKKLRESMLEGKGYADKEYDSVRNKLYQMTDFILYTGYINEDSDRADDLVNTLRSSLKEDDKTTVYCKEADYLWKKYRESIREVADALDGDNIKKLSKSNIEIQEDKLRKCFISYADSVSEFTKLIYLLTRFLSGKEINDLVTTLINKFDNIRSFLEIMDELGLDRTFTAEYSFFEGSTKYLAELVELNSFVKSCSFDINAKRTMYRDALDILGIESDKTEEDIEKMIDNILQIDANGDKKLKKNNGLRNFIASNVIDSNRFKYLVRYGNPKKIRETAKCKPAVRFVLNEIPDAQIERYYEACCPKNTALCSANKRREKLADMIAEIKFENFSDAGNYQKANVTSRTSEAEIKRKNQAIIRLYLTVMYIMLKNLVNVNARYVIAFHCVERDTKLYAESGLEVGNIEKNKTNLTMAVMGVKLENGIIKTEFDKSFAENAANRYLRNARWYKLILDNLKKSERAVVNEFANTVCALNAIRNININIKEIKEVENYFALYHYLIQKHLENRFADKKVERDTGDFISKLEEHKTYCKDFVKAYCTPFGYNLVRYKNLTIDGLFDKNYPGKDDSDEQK

B1: target 1 MT 5'PFS GGC 3'PFS AUG (mixed)
RNA 1: CACCCGUGCAAAAAUGCAGGGGUCUAAAACUGAGCGGAUAACCUCUCUAUGG
RNA 2: GGGAAUGGAUCCACAUCUACGAAUUCGGCCCAUAGAGAGGUUAUCCGCUCAAUGAGAUCGGAAGAGCACACGU
B2: target 1 MT 5'PFS UCC 3'PFS CCU (mixed)
RNA 1: CACCCGUGCAAAAAUGCAGGGGUCUAAAACUGAGCGGAUAACCUCUCUAUGG
RNA 2: GGGAAUGGAUCCACAUCUACGAAUUCUCCCCAUAGAGAGGUUAUCCGCUCACCUAGAUCGGAAGAGCACACGU
B3: target 1 MT 5'PFS AGA 3'PFS CCG (mixed)
RNA 1: CACCCGUGCAAAAAUGCAGGGGUCUAAAACUGAGCGGAUAACCUCUCUAUGG
RNA 2: GGGAAUGGAUCCACAUCUACGAAUUCAGACCAUAGAGAGGUUAUCCGCUCACCGAGAUCGGAAGAGCACACGU
B4: target 1 MT 5'PFS GUU 3'PFS AAC (mixed)
RNA 1: CACCCGUGCAAAAAUGCAGGGGUCUAAAACUGAGCGGAUAACCUCUCUAUGG
RNA 2: GGGAAUGGAUCCACAUCUACGAAUUCGUUCCAUAGAGAGGUUAUCCGCUCAAACAGAUCGGAAGAGCACACGU
B5: target 1 MT 5'PFS UAU 3'PFS UCC (mixed)
RNA 1: CACCCGUGCAAAAAUGCAGGGGUCUAAAACUGAGCGGAUAACCUCUCUAUGG
RNA 2: GGGAAUGGAUCCACAUCUACGAAUUCUAUCCAUAGAGAGGUUAUCCGCUCAUCCAGAUCGGAAGAGCACACGU
B6: target 1 insG 3' of 19,insG 3' of 6 (mixed)
RNA 1: CACCCGUGCAAAAAUGCAGGGGUCUAAAACUGAGCGGAUAACCUCUCUAUGG
RNA 2: GGGAAUGGAUCCACAUCUACGAAUUCGUACCAUGAGAGAGGUUAUCCGGCUCACCGAGAUCGGAAGAGCACACGU
B7: target 1 MT 5'PFS AGA 3'PFS AAU (mixed)
RNA 1: CACCCGUGCAAAAAUGCAGGGGUCUAAAACUGAGCGGAUAACCUCUCUAUGG
RNA 2: GGGAAUGGAUCCACAUCUACGAAUUCAGACCAUAGAGAGGUUAUCCGCUCAAAUAGAUCGGAAGAGCACACGU
B8: target 1 MT 5'PFS GUA 3'PFS CAG (mixed)
RNA 1: CACCCGUGCAAAAAUGCAGGGGUCUAAAACUGAGCGGAUAACCUCUCUAUGG
RNA 2: GGGAAUGGAUCCACAUCUACGAAUUCGUACCAUAGAGAGGUUAUCCGCUCACAGAGAUCGGAAGAGCACACGU
B9: target 1 insA 3' of 5,insC 3' of 3 (mixed)
RNA 1: CACCCGUGCAAAAAUGCAGGGGUCUAAAACUGAGCGGAUAACCUCUCUAUGG
RNA 2: GGGAAUGGAUCCACAUCUACGAAUUCGUACCAUAGAGAGGUUAUCCGACUCCACCGAGAUCGGAAGAGCACACGU
B10: target 1 MT 5'PFS CAA 3'PFS AUU (mixed)
RNA 1: CACCCGUGCAAAAAUGCAGGGGUCUAAAACUGAGCGGAUAACCUCUCUAUGG
RNA 2: GGGAAUGGAUCCACAUCUACGAAUUCCAACCAUAGAGAGGUUAUCCGCUCAAUUAGAUCGGAAGAGCACACGU
B11: target 1 MT 5'PFS GCC 3'PFS UAG (mixed)
RNA 1: CACCCGUGCAAAAAUGCAGGGGUCUAAAACUGAGCGGAUAACCUCUCUAUGG
RNA 2: GGGAAUGGAUCCACAUCUACGAAUUCGCCCCAUAGAGAGGUUAUCCGCUCAUAGAGAUCGGAAGAGCACACGU
B12: target 1 MT 5'PFS UGC 3'PFS ACU (mixed)
RNA 1: CACCCGUGCAAAAAUGCAGGGGUCUAAAACUGAGCGGAUAACCUCUCUAUGG
RNA 2: GGGAAUGGAUCCACAUCUACGAAUUCUGCCCAUAGAGAGGUUAUCCGCUCAACUAGAUCGGAAGAGCACACGU
B13: target 1 MT 5'PFS GUA 3'PFS CAU (mixed)
RNA 1: CACCCGUGCAAAAAUGCAGGGGUCUAAAACUGAGCGGAUAACCUCUCUAUGG
RNA 2: GGGAAUGGAUCCACAUCUACGAAUUCGUACCAUAGAGAGGUUAUCCGCUCACAUAGAUCGGAAGAGCACACGU
B14: target 1 MT 5'PFS UCC 3'PFS CCG (mixed)
RNA 1: CACCCGUGCAAAAAUGCAGGGGUCUAAAACUGAGCGGAUAACCUCUCUAUGG
RNA 2: GGGAAUGGAUCCACAUCUACGAAUUCUCCCCAUAGAGAGGUUAUCCGCUCACCGAGAUCGGAAGAGCACACGU
B15: target 1 MT 5'PFS GUA 3'PFS CAC (mixed)
RNA 1: CACCCGUGCAAAAAUGCAGGGGUCUAAAACUGAGCGGAUAACCUCUCUAUGG
RNA 2: GGGAAUGGAUCCACAUCUACGAAUUCGUACCAUAGAGAGGUUAUCCGCUCACACAGAUCGGAAGAGCACACGU
B16: target 1 MT 5'PFS CAA 3'PFS AAC (mixed)
RNA 1: CACCCGUGCAAAAAUGCAGGGGUCUAAAACUGAGCGGAUAACCUCUCUAUGG
RNA 2: GGGAAUGGAUCCACAUCUACGAAUUCCAACCAUAGAGAGGUUAUCCGCUCAAACAGAUCGGAAGAGCACACGU
B17: target 1 MT 5'PFS GAC 3'PFS CCC (mixed)
RNA 1: CACCCGUGCAAAAAUGCAGGGGUCUAAAACUGAGCGGAUAACCUCUCUAUGG
RNA 2: GGGAAUGGAUCCACAUCUACGAAUUCGACCCAUAGAGAGGUUAUCCGCUCACCCAGAUCGGAAGAGCACACGU
B18: target 1 MT 5'PFS CAA 3'PFS CCG (mixed)
RNA 1: CACCCGUGCAAAAAUGCAGGGGUCUAAAACUGAGCGGAUAACCUCUCUAUGG
RNA 2: GGGAAUGGAUCCACAUCUACGAAUUCCAACCAUAGAGAGGUUAUCCGCUCACCGAGAUCGGAAGAGCACACGU
B19: target 1 MT 5'PFS GCC 3'PFS UAA (mixed)
RNA 1: CACCCGUGCAAAAAUGCAGGGGUCUAAAACUGAGCGGAUAACCUCUCUAUGG
RNA 2: GGGAAUGGAUCCACAUCUACGAAUUCGCCCCAUAGAGAGGUUAUCCGCUCAUAAAGAUCGGAAGAGCACACGU
B20: target 1 MT 5'PFS CAA 3'PFS AAA (mixed)
RNA 1: CACCCGUGCAAAAAUGCAGGGGUCUAAAACUGAGCGGAUAACCUCUCUAUGG
RNA 2: GGGAAUGGAUCCACAUCUACGAAUUCCAACCAUAGAGAGGUUAUCCGCUCAAAAAGAUCGGAAGAGCACACGU
B21: target 1 MT 5'PFS GUA 3'PFS CAA (mixed)
RNA 1: CACCCGUGCAAAAAUGCAGGGGUCUAAAACUGAGCGGAUAACCUCUCUAUGG
RNA 2: GGGAAUGGAUCCACAUCUACGAAUUCGUACCAUAGAGAGGUUAUCCGCUCACAAAGAUCGGAAGAGCACACGU
B22: target 1 MT 5'PFS GGC 3'PFS AUU (mixed)
RNA 1: CACCCGUGCAAAAAUGCAGGGGUCUAAAACUGAGCGGAUAACCUCUCUAUGG
RNA 2: GGGAAUGGAUCCACAUCUACGAAUUCGGCCCAUAGAGAGGUUAUCCGCUCAAUUAGAUCGGAAGAGCACACGU
B23: target 1 insG 3' of 22,insU 3' of 2 (mixed)
RNA 1: CACCCGUGCAAAAAUGCAGGGGUCUAAAACUGAGCGGAUAACCUCUCUAUGG
RNA 2: GGGAAUGGAUCCACAUCUACGAAUUCGUACGCAUAGAGAGGUUAUCCGCUCUACCGAGAUCGGAAGAGCACACGU
B24: target 1 MT 5'PFS GCC 3'PFS UAC (mixed)
RNA 1: CACCCGUGCAAAAAUGCAGGGGUCUAAAACUGAGCGGAUAACCUCUCUAUGG
RNA 2: GGGAAUGGAUCCACAUCUACGAAUUCGCCCCAUAGAGAGGUUAUCCGCUCAUACAGAUCGGAAGAGCACACGU
B25: target 1 MT 5'PFS GCC 3'PFS UAU (mixed)
RNA 1: CACCCGUGCAAAAAUGCAGGGGUCUAAAACUGAGCGGAUAACCUCUCUAUGG
RNA 2: GGGAAUGGAUCCACAUCUACGAAUUCGCCCCAUAGAGAGGUUAUCCGCUCAUAUAGAUCGGAAGAGCACACGU
B26: target 1 MT 5'PFS AGA 3'PFS CCU (mixed)
RNA 1: CACCCGUGCAAAAAUGCAGGGGUCUAAAACUGAGCGGAUAACCUCUCUAUGG
RNA 2: GGGAAUGGAUCCACAUCUACGAAUUCAGACCAUAGAGAGGUUAUCCGCUCACCUAGAUCGGAAGAGCACACGU
B27: target 1 MT 5'PFS CAA 3'PFS CCC (mixed)
RNA 1: CACCCGUGCAAAAAUGCAGGGGUCUAAAACUGAGCGGAUAACCUCUCUAUGG
RNA 2: GGGAAUGGAUCCACAUCUACGAAUUCCAACCAUAGAGAGGUUAUCCGCUCACCCAGAUCGGAAGAGCACACGU

Here are results for 27 molecules from PMC10786891, “Massively parallel profiling of RNA-targeting CRISPR-Cas13d”.

This data set deals with T1, EsCas13d, nuclease-dead. In words: crRNA (strand 1, pre-loaded); Mg2+; 40 mM Tris-HCl pH 7.5, 150 mM NaCl, 6 mM MgCl2, 1 mM DTT, 0.1% Tween-20, 0.2 mg/ml BSA; 25 C; 10 min per concentration, then washed. Conditions: tags: His6-TwinStrep-SUMO cleaved; N-terminal SNAP kept (SNAP-Surface 488); label: 3' end held by stalled T7 RNA polymerase.
In general, Kd refers to the concentration at which binding is half-saturated. A low value points to higher affinity. In turn, B1 came in with a Kd of 0.0225 ± 0.007 µM. For B2 the value was ~0.015 µM. With B3, the Kd is 0.037 ± 0.0105 µM. To B4 belongs 0.052 ± 0.019 µM; to B5, 0.036 ± 0.0135 µM; to B6, 0.076 ± 0.009 µM. The molecule B7 came in with an equilibrium dissociation constant (Kd) of 0.061 ± 0.022 µM. As for B8, the equilibrium dissociation constant (Kd) was 0.0175 ± 0.00225 µM. This Kd lies about 3.5-fold lower than the previous one. Molecule B9 returned an equilibrium dissociation constant (Kd) of 0.0123 ± 0.0022 µM. The Kd values of the last two molecules are within 1.5-fold of each other. For B10 the value was 0.0098 ± 0.0035 µM; for B11, 0.0218 ± 0.0061 µM; for B12, 0.0108 ± 0.00245 µM.

In turn, B13 came in with a dissociation constant (Kd) of 0.012 ± 0.00115 µM. In the case of B14, the Kd is 0.018 ± 0.005 µM. To B15 belongs 0.0169 ± 0.00235 µM; to B16, ~0.0275 µM.

As to B17, the Kd was ~0.037 µM. In turn, B18 showed a Kd of 0.024 ± 0.0065 µM. For the molecule B19, the Kd came out at 0.016 ± 0.006 µM.

Regarding B20, the Kd came out at 0.043 ± 0.018 µM.

Molecule B21 returned a Kd of 0.0196 ± 0.0023 µM.

Consider B22, for which binding was characterised by a dissociation constant (Kd) of 0.0196 ± 0.00475 µM. For B23 the value was 0.0297 ± 0.0027 µM; for B24, 0.016 ± 0.0055 µM; for B25, 0.0108 ± 0.00245 µM.

Take B26: the dissociation constant Kd is ~0.0645 µM. On to B27, for which the dissociation constant Kd was ~0.0305 µM.
